# Patent US20090214565A1 (BAYLOR RESEARCH INSTITUTE, published 2009)
# What was measured:
# leukocyte IFN (Sigma) = assay: cell-based or functional assay
# IFN-α C [1] = target: T1, IFN-α C (human, UniProt P01566 24-189); assay: cell-based or functional assay
# IFN-α J1 [2] = target: T2, IFN-α J1 (human, UniProt P01567 24-189); assay: cell-based or functional assay
# IFN-α WA [3] = target: T3, IFN-α WA (human, UniProt P05015 24-189); assay: cell-based or functional assay
# IFN-α H2 [4] = target: T4, IFN-α H2 (human, UniProt P01570 24-189); assay: cell-based or functional assay
# IFN-α G [5] = target: T5, IFN-α G (human, UniProt P01569 24-189); assay: cell-based or functional assay
# IFN-α F [6] = target: T6, IFN-α F (human, UniProt P01568 24-189); assay: cell-based or functional assay
# IFN-α I [7] = target: T7, IFN-α I (human, UniProt P01571 24-189); assay: cell-based or functional assay
# IFN-α4a [8] = target: T8, IFN-α4a (human, UniProt P05014 24-189, limits assumed); assay: cell-based or functional assay
# IFN-α K [9] = target: T9, IFN-α K (human, UniProt P05013 24-189); assay: cell-based or functional assay
# IFN-α D [10] = target: T10, IFN-α D (human, UniProt P0DY56 24-189); assay: ELISA, IFN subtype coated
# T10 construct: Bought from PBL; Differs from IFN-α1 by Val at 114 as printed; also called IFNα protein subtype D [Val114]; (gene 1); D (1)
# Experimental: Solid-phase binding of all 15 IFNα subtypes was evaluated for screening of MAb specificity by ELISA assay. Briefly, 50 μl/well of 1 μg/ml of a recombinant IFNα protein subtype were coated overnight at 4° C. on ELISA plates (NUNC MaxiSorp™) plates. Coated plates were blocked with PBS+1% BSA and incubated with 50 μl of 25 ng ACO candidate MAb in PBS for 1 hour at 37° C. The assays were developed by incubation with 50 μl/well of an HRP conjugated goat anti-mouse-IgG (Jackson ImmunoResearch) at room temperature for 30 minutes followed by incubation with 100 μl/well of TMB substrate solution (Zymed) for 15 minutes. The reaction was stopped with 100 μl/well of 1 N HCl and read at OD₄₅₀ on an ELISA plate reader.
# IFN-α C [11] = target: T1, IFN-α C; assay: cell-based or functional assay; remark: listed apart in the source
# IFN-α J1 [12] = target: T2, IFN-α J1; assay: cell-based or functional assay; remark: listed apart in the source
# IFN-α WA [13] = target: T3, IFN-α WA; assay: cell-based or functional assay; remark: listed apart in the source
# IFN-α H2 [14] = target: T4, IFN-α H2; assay: cell-based or functional assay; remark: listed apart in the source
# IFN-α D [15] = target: T10, IFN-α D; assay: cell-based or functional assay
# IFN-α G [16] = target: T5, IFN-α G; assay: cell-based or functional assay; remark: listed apart in the source
# IFN-α F [17] = target: T6, IFN-α F; assay: cell-based or functional assay; remark: listed apart in the source
# IFN-α I [18] = target: T7, IFN-α I; assay: cell-based or functional assay; remark: listed apart in the source
# IFN-α4a [19] = target: T8, IFN-α4a; assay: cell-based or functional assay; remark: listed apart in the source
# IFN-α K [20] = target: T9, IFN-α K; assay: cell-based or functional assay; remark: listed apart in the source
# IFN-α C [21] = target: T1, IFN-α C; assay: cell-based or functional assay; remark: listed apart in the source
# IFN-β = IFN-β (human, UniProt P01574 22-187); assay: cell-based or functional assay
# IFN-α J1 [22] = target: T2, IFN-α J1; assay: cell-based or functional assay; remark: listed apart in the source
# IFN-α WA [23] = target: T3, IFN-α WA; assay: cell-based or functional assay; remark: listed apart in the source
# IFN-α H2 [24] = target: T4, IFN-α H2; assay: cell-based or functional assay; remark: listed apart in the source
# IFN-α D [25] = target: T10, IFN-α D; assay: cell-based or functional assay; remark: listed apart in the source
# IFN-α G [26] = target: T5, IFN-α G; assay: cell-based or functional assay; remark: listed apart in the source
# IFN-α F [27] = target: T6, IFN-α F; assay: cell-based or functional assay; remark: listed apart in the source
# IFN-α I [28] = target: T7, IFN-α I; assay: cell-based or functional assay; remark: listed apart in the source
# IFN-α4a [29] = target: T8, IFN-α4a; assay: cell-based or functional assay; remark: listed apart in the source
# IFN-α K [30] = target: T9, IFN-α K; assay: cell-based or functional assay; remark: listed apart in the source
# T5 sequence (P01569 24-189): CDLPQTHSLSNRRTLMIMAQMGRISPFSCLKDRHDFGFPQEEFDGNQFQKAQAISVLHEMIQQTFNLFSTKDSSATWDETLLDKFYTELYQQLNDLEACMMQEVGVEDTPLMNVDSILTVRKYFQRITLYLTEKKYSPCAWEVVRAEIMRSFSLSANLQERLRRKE
# T1 sequence (P01566 24-189): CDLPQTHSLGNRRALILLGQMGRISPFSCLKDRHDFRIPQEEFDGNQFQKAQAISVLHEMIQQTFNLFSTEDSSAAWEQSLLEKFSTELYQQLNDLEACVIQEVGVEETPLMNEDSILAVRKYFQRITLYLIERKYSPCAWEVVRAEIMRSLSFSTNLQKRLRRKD
# T10 sequence (P0DY56 entry or part of it limits assumed): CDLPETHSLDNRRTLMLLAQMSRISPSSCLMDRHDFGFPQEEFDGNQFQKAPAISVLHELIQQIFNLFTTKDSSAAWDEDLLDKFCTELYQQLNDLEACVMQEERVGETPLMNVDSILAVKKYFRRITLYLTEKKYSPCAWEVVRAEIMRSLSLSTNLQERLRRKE
# T4 sequence (P01570 24-189): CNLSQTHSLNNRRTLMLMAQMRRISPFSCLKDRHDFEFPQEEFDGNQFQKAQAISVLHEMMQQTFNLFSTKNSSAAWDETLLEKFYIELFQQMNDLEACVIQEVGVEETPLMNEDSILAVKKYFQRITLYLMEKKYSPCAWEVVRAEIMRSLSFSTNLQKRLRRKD
# T2 sequence (P01567 24-189 limits assumed): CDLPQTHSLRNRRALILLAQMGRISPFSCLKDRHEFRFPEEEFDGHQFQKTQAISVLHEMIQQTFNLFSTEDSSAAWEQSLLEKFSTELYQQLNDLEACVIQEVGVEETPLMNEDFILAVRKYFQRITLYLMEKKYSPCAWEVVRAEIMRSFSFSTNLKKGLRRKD
# T8 sequence (P05014 24-189 limits assumed): as the sequence (P01566 24-189) above, with G19A, P26H, R37G, I38F, Q40E, N46H, I132T, R134K counted along it
# T9 sequence (P05013 24-189): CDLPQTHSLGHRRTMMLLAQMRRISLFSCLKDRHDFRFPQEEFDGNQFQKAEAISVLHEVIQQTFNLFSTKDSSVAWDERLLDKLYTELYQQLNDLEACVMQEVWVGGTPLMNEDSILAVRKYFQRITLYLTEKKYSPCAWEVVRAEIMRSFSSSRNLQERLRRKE
# T3 sequence (P05015 24-189): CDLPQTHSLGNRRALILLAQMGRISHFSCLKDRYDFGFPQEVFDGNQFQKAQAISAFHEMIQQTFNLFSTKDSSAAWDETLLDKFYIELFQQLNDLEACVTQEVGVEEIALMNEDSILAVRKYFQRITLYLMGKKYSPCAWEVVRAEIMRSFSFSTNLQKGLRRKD
# T7 sequence (P01571 24-189): as the sequence (P01566 24-189) above, with G19A, R37G, I38L, A51T, D95N, V106M, I132T, R134K, R161I counted along it
# T6 sequence (P01568 24-189): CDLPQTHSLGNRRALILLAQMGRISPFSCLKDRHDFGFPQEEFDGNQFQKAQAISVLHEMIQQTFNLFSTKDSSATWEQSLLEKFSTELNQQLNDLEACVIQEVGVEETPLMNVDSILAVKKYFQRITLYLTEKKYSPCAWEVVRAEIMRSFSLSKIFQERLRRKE
# Chain of IFN-β (P01574 22-187 limits assumed): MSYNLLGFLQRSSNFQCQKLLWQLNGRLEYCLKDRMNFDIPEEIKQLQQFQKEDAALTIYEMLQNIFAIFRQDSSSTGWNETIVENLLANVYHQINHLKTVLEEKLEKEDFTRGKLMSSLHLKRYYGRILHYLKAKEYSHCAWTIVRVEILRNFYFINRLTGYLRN
binder,measurement,setting,value
"ACO-1 (antibody, V domains shown, also called ACO-1 monoclonal antibody; hybridoma ATCC PTA-6557) VH: QVQLQQPGAELVKPGASVKLSCKASGYTFTNYWMHWVKQRPGQGLEWIGEINPSHGRTIYNENFKSKATLTVDKSSITAFMQLSSLTSEDSAVYFCARGGLGPAWFAYWGQGTLVTVSA VL: QIVLTQSPAIMSASPGEKVTLTCSAGSSVDSSYLYWYQQKPGSSPKLWIYSTSNLASGVPARFSGSGSGTSYSLTISSMEAEDAASYFCHQWSSYPFTFGSGTKLEIKR","neutralization of 600 pg leukocyte IFN, RG bioassay",leukocyte IFN (Sigma),> 50%
same,"EC50 of neutralization, RG bioassay",IFN-α C [1],0.00056 µg/mL
same,"EC50 of neutralization, RG bioassay",IFN-α J1 [2],0.168 µg/mL
same,"EC50 of neutralization, RG bioassay",IFN-α WA [3],0.0848 µg/mL
same,"EC50 of neutralization, RG bioassay",IFN-α H2 [4],0.153 µg/mL
same,"EC50 of neutralization, RG bioassay",IFN-α G [5],0.0271 µg/mL
same,"EC50 of neutralization, RG bioassay",IFN-α F [6],0.146 µg/mL
same,"EC50 of neutralization, RG bioassay",IFN-α I [7],0.0135 µg/mL
same,"EC50 of neutralization, RG bioassay",IFN-α4a [8],0.00211 µg/mL
same,"EC50 of neutralization, RG bioassay",IFN-α K [9],0.235 µg/mL
same,binding result,IFN-α D [10],no binding (tested: <2-fold over matched controls; 25 ng MAb)
same,"percentage neutralization, CPE assay",IFN-α C [11],99.4%
same,"percentage neutralization, CPE assay",IFN-α J1 [12],98.1%
same,"percentage neutralization, CPE assay",IFN-α WA [13],88.7%
same,"percentage neutralization, CPE assay",IFN-α H2 [14],95.9%
same,"percentage neutralization, CPE assay",IFN-α D [15],33%
same,"percentage neutralization, CPE assay",IFN-α G [16],99%
same,"percentage neutralization, CPE assay",IFN-α F [17],96.6%
same,"percentage neutralization, CPE assay",IFN-α I [18],98%
same,"percentage neutralization, CPE assay",IFN-α4a [19],82.9%
same,"percentage neutralization, CPE assay",IFN-α K [20],98.3%
same,"percentage neutralization, RG assay",IFN-α C [21],91.4%
same,"percentage neutralization, RG assay",IFN-β,9%
same,"percentage neutralization, RG assay",IFN-α J1 [22],83.9%
same,"percentage neutralization, RG assay",IFN-α WA [23],86.9%
same,"percentage neutralization, RG assay",IFN-α H2 [24],77.5%
same,"percentage neutralization, RG assay",IFN-α D [25],12.5%
same,"percentage neutralization, RG assay",IFN-α G [26],92.7%
same,"percentage neutralization, RG assay",IFN-α F [27],83.7%
same,"percentage neutralization, RG assay",IFN-α I [28],87.1%
same,"percentage neutralization, RG assay",IFN-α4a [29],67.8%
same,"percentage neutralization, RG assay",IFN-α K [30],77.9%
